Our source for the protein production values is a protein production outcome set (Wang et al. 2014).

A short description of this series: label from the status in PepcDB records.

Turning to “MLDTVRQELNNFRSPLYRNSIYISLTSLVTAVAGFLFWSVAARLYPSSQVGVASALVSAINLTFTVSMLGLNFALIRFYPQYKERAVGSSLVLAVTASFFVSLVYGLIMGGSESFRGVFSAEFLAIFVTFSMVGTAYNILSTYAIAKRKAEHSFMQGLLFALRFVFLFFLVPLGVFGIVGSFGFGLTLGLIYGLIFIDDIKLSLDVEYLKESFRFSLGNYIASMANVAPNYLMPTLVLTMLGKEEAAYFYIAFAIGNLILFIPNAINTSFFVEGSHGLKDMKRTLKKALAFSYLYLAVATVFVWLFGGYVLELFRPEYVKGFGLLKLMVLGGFFVVPVNFSITILNIQKRVREVVGINLLKAALFLGLSYLLIPRFGIEGVGWGWIGAYSISVFMLFVRFFRKVF”, the protein production result was “failed”. With “MLEACESKLDIIKNFVPSWFAAVMGTGILAVDSLLYSSYLPILKDVAVGLFYFNVLLFFIFLVPWVLRWIMFKDNALADLKHPVLSAFYPTIAVSCLVLGADFINIGHNMFWGGVFWTLGAIGMFLFSLIVPFYMFKSESIKLDHVNPGWYIPPVGLIVIPIAGSLIMPHLTGVWHELTVLINYFGWGAGFFLYLALLAVVIYRFILHHPLPSAMAPTVWINLGPIGAGIVALINMVNNSPFITIKEPFYIFSFIFWGFGLWWSLMAIIMTLYYVKKLKLPYAMSWWAFIFPLGAYVASSHLVYKIFKFSIIDYIGFGLYWLLFFFWAITLIKTTNKVYTGEVFKGH”, the protein production result is given as “failed”. For the sequence “MLEDLIGKAYLESAEDRRRGDRSEEVEAIRKYIRSARRTVVPNWNAEKVDAINDVLRSFNLREAEHLQFNTNWADLTRMPAVTKALMALDISGADLVIARGRLGVPGSGSLLVIMDSRGRLLSAAMSPPHVIHSMEVREAVRSEMTHALERIGFKR”, the protein production result is recorded as “not failed”. For the sequence “MLEEVERWLDARSWPAADRPVQHLLSAKHATGQSVSVVLPALDEEATVGDIVSVIRRELVLGVPLVDEIVVVDSGSSDRTSEVAAAAGARVVHRDAILPRIPAVPGKGEVLWRSLLVTGGDIVCFVDADLREFSADFVSGIVGPLLTDPDVHLVKAMYDRPLAGAAGQGGRVTELMARPLLNMHWPQLAGFVQPLGGEYAARRSLLERLPFPVGYGVELGMLVDALHLVGLDALAQVDVGVRVHRHQDGRALGRMAAAIYRTAQLRLARGHLVRPALTQFERGVDGFEPRTYAVDTEERPPMTEIAEYAARKVALEHHHHHH”, the protein production entry is listed as “not failed”. As for “MLEEYEKKRDFNKTSEPPARGEEKNSDKPVFVVQRHDATNLHYDFRLEMDGVLKSWAVPKEPPKSPGTRRLAIETEDHPLGYADFEGEIPEGQYGAGRVEIWDRGTFELLKRNEKEIIITLHGEELEGDYVLIKTKYGKEDKGWLFFKKKTGLEHHHHHH”, the protein production entry is recorded as “not failed”. Turning to “MLEIPEDRCERHRLFKAIDDAFKAGDFDGLGKALGGSPGWFDERMPFELGLGHPLEYAIYWSPVGFISTLLDAGSDPNYQDHGGFPAIIAALSTDRADRLEVVRVLIEAGADPNMRGVNDWTPLHYSVGIRSAEAIHLLLAAGADPTLATRIDDYTTAFEEADKAGFEAGASLLRDAIARRGFNR”, the protein production result was “failed”. On to “MLELAAGFICLTSLLTYVNYRFIGLPPTIGVMVTALMFSLLLQGLSFLGYPGLEDRVQQLIGQIDFGDLLMNWMLSFLLFAGALHVNLADLKSYRWPIGLLATFGVLIATTVIGALAYWIFALFGWHVSPLYCLLFGALISPTDPIAVLGVLRTANASKPLKTTIVGESLFNDGTAVVVFTVLLGIAQLGETPTVGETALLFVHEAVGGVLFGGLIGYAVYLMIKSIEQYQIEVMLTLALVIGGSAMASELHVSGPIAMVVAGLIIGNLGRNLAMNDMTRRYMDGFWELLDDMLNALLFALIGMELLLLPFSWQHLIAASLLAVAILLSRFVTVAPAILLLRRWRKVPHGTIRILTWGGLRGGVSVALALALPNGPERDLLLSITYIVVLLSILFQGLTIGKLVNAVTREPQAKDPAGH”, for which the protein production result is given as “failed”. The entry for “MLELFMQPEAWVIFATLFALEVVLGVDNVVFISVLCERLPSHQRKLARNLGIGLAVLARIGLVFSITWIMQLTQPLFSVANHAVTGRDMIMILGGAFLLAKSLKELWSWLTHNETDHSTHVRTGLAVVLLQIVAVDAVFSMDSVITAVGLTSEVPLMVAAIIASALVMVMTAEKINNLVTRYPGFKTLALLFLVLLGGLLMAEGFAIHINKGYVYFAMAFGLALELCHIQLKNKQRRTIQRIRPMHDVAT” is “failed”; for “MLEQSLRHYYQLVLVDPILPALRDRITPLSITWLSGIFGLLFIPFVLLDKPYIAISFLLLSGYLDTLDGSLARFQNRASDFGSAMDIVIDRIVEFSAVLALYLFDPQHRATLAILMLGSILLCITSFLVVGIFSNNTTQKSFYYSPGIMERAEAFLFFIFMTLFSSCFNFLAALFCFLVCLTALIRLFEFKKSVQAPS” it is “failed”; for “MLESVAAEPRRAAATDQAGTEARKQRLRRRLERLIGIAATEGNELVPLRNGDEIFPAMLRAIRTAEHTVDMMTFVYWRGQIARDFAAALAERARAGVRVRLLLDGFGAKQIEEGLLESMNSAGVEVAWFRKPLWLSPLKQNHRCHRKVLVVDEHTAFTGGVGIAEEWGGDARNPSEWRDTHVQVRGPAVDGIAAAFAQNWAECHDELFDERDRFTEHEQSGRATVQVVRGSASFGWQDMQTLVRVMLASAEERFRLSTAYFAPDSYFVDLLCATARRGVQVQILLPGPYTDQRACRLAGQHYYGTLLDAGVEIRQYQPTMLHTKIMTVDGVAALIGSSNFNRRSMEHDEEIMLAVLDETFTAALDRDFEEDRERAEAIVAARWKHRSPVQRLKEAIVAPVRRFL” it is “failed”. With “MLFFNVASLKYKHHESIQMIIDRIDHLVLTVSDISTTIRFYEEVLGFSAVTFKQNRKALIFGAQKINLHQQEMEFEPKASRPTPGSADLCFITSTPINDVVSEILQAGISIVEGPVERTGATGEIMSIYIRDPDGNLIEISQYVLEHHHHHH”, the protein production result is recorded as “not failed”.

For “MLFGDSVAIAFAQVSIHSRSKGHSAVAAAAYRSGARLYDDRIGRAYDFSKRDDVAFSEILLPDGTTDSFLERDYLWNEVERAENRSNSQLCKDFVLALPRELNLEQQIELAKRFARTHFVEKGLPADIAIHDHGDGNPHAHILIPTRRLENNRFSKYKARDLNPVFAKGFLVEQDYWGEQWREMQNEFFIENNLDLQVDANHLIAERHRGKHHNANAHYLLEENQLIQQARMELTRDNIDLVIDHLSTQYSVFTRRDVERLLFKTFQASDSPQEYLQFVERVLGHQDLVALGDNNKGEPSFTTRTHLMQEAQLLHDIEAMMVSKNHVVHQPIDSLAQQYRLSEEQYEAFRYITQSPDISVVIGRPGTGKSYLLKPLNEYYIQAGMEVIGAALSGKVAKALQAETGITSSTIKSLSYRLANDMMQLSDKHVLIIDEAGMVDFSSMGYLIKEAHKAGSKVVLIGDPDQLKPIQKGEIFRGIAARTGYIELENIKRQQDLGDRQASLNLAKGDIDKAIQHYQDKGAITITDTKLQAIEQVVADWKQDLESTNMADSIMLSYTRKAVNHLNDLAREALIVENKIGEENIVYQGLERSLKISTGERLLLRENNKVLGVRNGDTATVKEINVQQMKIQLDSGELLIIPKEYKALDYAYALTVHKSQGMTAKKVRVLIDSKYWDRNLSFVAMTRHKEQLNIYADKENHPTEQALKQTLSRSSTKDNVIDWPLDFAIRAGFDSDSLISRALNHIVGVGHKIKQAYNFIVNYEASLLKARHQERFQDIGQAIADAKQEALKVDTKEFESNDCKTSEQSFGILKKDFPQLVELETLIKRRQRMTGYFAEKTDKQIMALTQQLLTNKTFANQVKYQVPEFYQKLQSIDNKQKEKALLQNH”, the protein production entry is “failed”.

As to “MLFIFLTIAALGLSFWAQFKVKSNFEKYSKVEASSGRTGAETARRILDINGLYDVPVEPVRGTLTDHYDPTRRVVRLSEPVYYGRSISAISVASHEVGHALQHQESYGALVLRHKIFPVVNFASGVAPLLFLGGMLLGSLNLIGLGIILFSAAVFFQLITLPVEFNASSRAKQIIVSEGFIRNNEENGVNKVLSAAALTYVAAALVSLFELLRFVMIFLNGRDEN”, the protein production entry is “failed”. The entry for “MLFKTIFYQKLQKKVTTLFNLETERVIREIENLNKNNPKVIFQAPEGLKLKVEKEIEKIKQYFKQKNINIEIYLWGNTCFGACDLIDNHVKNLNVDLIIHYGHEKLSYANPEIKTLFIPAYHIFNKDEEEKILNDIKNFIEKHKSGGKKVAIATTIQYKKLLKDFNPSIILGCRGEVKEGDVILFVGTGRFHPLMIAYKYQKEVFIYNPLSKCFDKISEEEINKFIKKRILAISKLLLNKPKKVGVVLSTKKGQCRKRVFDEIIKLLEENDVNYLPILVDNISPDILFYDVDCYIIVACPRIVLDDYILYKKPIYTPEEFKLFLKNSFKYKFDEIKEDDFLEHHHHHH” is “not failed”; for “MLFLVKEIYLQHLIQFFYVGFGIFLLYLGGNLLLKSSVGIATYLKVPTLLIGVTIVSFSTSAPELFTSLVAAFKGKNEIVVSNVIGSNIINMLLALPLAGFFLKIKADFKRLKLSFMFLFLLMFLLLLLSFDFRSYSFFVTPYNRFSSFSILILFLSYLLLFYKEEKEYASLENSFQEGASNLNQSFNFIFFNLLSFAISMYFLYLGSKLLVDGALYIANNVFNVSEKLIGIILVAFGTSVPELVVSLFAIIRKESDIAFGNIIGSNIFNIGFILASSSFFRPILLQDIYILDFSIMVFITLVLFLVVKFKGVFGRGISLIFLLLYFLYNLMLFNFY” it is “failed”. For the sequence “MLFRHKGILYLFLSSLIISAANPVIAKLITLGNEHLVNGRNPISFCNVLFAGNFIAVLTLILIHFRELKEFQPEHLTAKNWCLIFLAALFAGFLTPTLFFLGLMYTNVINVVLISNLQIPMTLLAGWIFLGEVPNIRVTTGAFLATLGVFAIVILQYWLGGAGALTPNPEMKTGPLFIFLSSIPRSGEICIFLAVVSSTASTIIGFHALRRLPHYLFSILKMLLGLVLFFFIVISMFGWHHFADLFSPFLWEWMLFYGSVIIALRYYFSMLGMKHAKVAEVAISSSIIPLMSIIFSYLILGEVPGISQIIGGSLILFGIYVALTGKLQAPEKTEILEKPSGFSGV”, the protein production entry is on record as “failed”. Take “MLFTQALLVTLVGIIATIDYNGPLFMIHRPLVTSAMVGLVLGDFTQGVLIGSALELTWLGVTGIGGYTPPDTISGAIIGTAFGILSGQGETAGIAIAVPIAVATQQLDVLAKTLDVYFVKKADNDAKNGDYSKIGFYHYSSLVLITLFKIVPIFLAIMLGGEYVADLFAKVPPIVMQGLNSAGALLPSIGFGMLLNMMLKKNMWVFLLIGFICSVYGGMSTIGISLVGIAVAYFYDMIGSKPQETTSSSDVEEDLDL”: the protein production result is “failed”. Then “MLGAAPENCTVNELNPDRANQLRSQGFTVTEQDATAYLPNQLYDVVIMNPPFGRVKGKRFRLAGEMGTTSQIDQAIALHSLQAMKDDGRAVLILG”, with “failed”. As for “MLGGNNDNPVPQVLMNDSQFRYQSNTSLNQLHLLGTMRAGCTIDPVNYFANDNLAPMMRLNSTRGRETENNNIMQRQQKLQISLNYNYNNNNTVVQDEVPKQNLVSTGLRLSYDDDERNSSVTSANGSITTPVYQSLGDNIRLDLNRQNDELDQFIKFRADQMAKGVRDIKQRHVTSFVTALEKDVSKKLQEKDHEIESMNKKNRELVDKIKQVAVEAQNWHYKAKYNESVVNALKVNLQQVMSHGNDNNAVGGGVADHHQMKEGFGDSEIDDEAASYNYLNIPGMPSTGMRCKLCNVKNVSVLLVPCRHLSLCKDCDVFTGVCPVCQSLKTSSVQVFFF”, the protein production entry is reported as “failed”.
